# Laboratory results: US20220348620A1
# Experiments:
# Test in all cases: anti-Flag pull-down from MFF1-transfected PC3 cells, LC-MS/MS; intensity over control, mean of two experiments
# [1] = molecular target: COPA (human) (UniProt P53621)
# [2] = molecular target: COPB1 (human) (UniProt P53618)
# [3] = molecular target: DDB1 (human) (UniProt Q16531)
# [4] = molecular target: DDOST (human) (UniProt P39656)
# [5] = molecular target: HSPA8 (human) (UniProt P11142)
# [6] = molecular target: OPA1 (human) (UniProt O60313)
# Sequence of OPA1 (human) (O60313 88-960 limits assumed): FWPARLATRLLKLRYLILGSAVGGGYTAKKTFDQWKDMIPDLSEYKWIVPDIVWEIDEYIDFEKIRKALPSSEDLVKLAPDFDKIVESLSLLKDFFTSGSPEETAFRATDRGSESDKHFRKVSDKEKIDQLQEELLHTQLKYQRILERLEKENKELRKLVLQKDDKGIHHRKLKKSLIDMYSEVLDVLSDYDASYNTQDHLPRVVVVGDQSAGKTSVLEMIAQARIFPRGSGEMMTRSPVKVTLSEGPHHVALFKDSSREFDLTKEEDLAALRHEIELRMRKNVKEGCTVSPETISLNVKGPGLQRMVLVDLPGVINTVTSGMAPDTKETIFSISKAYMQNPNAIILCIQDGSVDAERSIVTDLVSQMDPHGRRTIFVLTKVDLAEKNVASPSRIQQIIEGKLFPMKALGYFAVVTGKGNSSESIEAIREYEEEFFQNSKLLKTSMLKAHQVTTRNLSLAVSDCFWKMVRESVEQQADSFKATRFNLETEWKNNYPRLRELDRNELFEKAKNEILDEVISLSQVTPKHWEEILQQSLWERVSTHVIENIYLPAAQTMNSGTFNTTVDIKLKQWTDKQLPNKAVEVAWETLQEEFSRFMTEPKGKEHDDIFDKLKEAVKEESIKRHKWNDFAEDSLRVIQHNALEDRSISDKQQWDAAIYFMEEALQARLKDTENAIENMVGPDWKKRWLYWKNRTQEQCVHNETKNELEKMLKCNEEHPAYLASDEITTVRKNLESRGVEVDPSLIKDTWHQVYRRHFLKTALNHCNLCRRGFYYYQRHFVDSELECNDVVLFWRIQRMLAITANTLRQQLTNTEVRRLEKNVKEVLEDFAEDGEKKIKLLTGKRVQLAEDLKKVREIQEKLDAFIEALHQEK
# [7] = molecular target: RPN1 (human) (UniProt P04843)
# Sequence of RPN1 (human) (P04843 24-607 limits assumed): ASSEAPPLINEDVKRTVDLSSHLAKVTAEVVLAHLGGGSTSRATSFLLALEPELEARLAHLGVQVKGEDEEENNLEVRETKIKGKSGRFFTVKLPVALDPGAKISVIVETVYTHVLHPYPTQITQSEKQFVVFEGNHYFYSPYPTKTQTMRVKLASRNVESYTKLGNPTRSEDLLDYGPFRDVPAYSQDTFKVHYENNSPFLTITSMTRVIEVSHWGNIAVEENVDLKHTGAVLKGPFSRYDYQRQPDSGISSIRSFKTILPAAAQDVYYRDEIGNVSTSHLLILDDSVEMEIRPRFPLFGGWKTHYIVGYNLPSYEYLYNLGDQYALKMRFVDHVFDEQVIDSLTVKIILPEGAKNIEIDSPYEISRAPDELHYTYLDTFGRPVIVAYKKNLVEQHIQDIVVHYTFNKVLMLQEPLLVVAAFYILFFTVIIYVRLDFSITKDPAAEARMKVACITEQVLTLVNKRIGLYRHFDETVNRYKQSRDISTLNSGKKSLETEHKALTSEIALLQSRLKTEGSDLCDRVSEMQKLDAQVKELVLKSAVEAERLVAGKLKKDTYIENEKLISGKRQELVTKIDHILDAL
# [8] = molecular target: RPN2 (human) (UniProt P04844)
# [9] = molecular target: SLC25A13 (human) (UniProt Q9UJS0)
# [10] = molecular target: TFRC (human) (UniProt P02786)
# Sequence of TFRC (human) (P02786 whole entry): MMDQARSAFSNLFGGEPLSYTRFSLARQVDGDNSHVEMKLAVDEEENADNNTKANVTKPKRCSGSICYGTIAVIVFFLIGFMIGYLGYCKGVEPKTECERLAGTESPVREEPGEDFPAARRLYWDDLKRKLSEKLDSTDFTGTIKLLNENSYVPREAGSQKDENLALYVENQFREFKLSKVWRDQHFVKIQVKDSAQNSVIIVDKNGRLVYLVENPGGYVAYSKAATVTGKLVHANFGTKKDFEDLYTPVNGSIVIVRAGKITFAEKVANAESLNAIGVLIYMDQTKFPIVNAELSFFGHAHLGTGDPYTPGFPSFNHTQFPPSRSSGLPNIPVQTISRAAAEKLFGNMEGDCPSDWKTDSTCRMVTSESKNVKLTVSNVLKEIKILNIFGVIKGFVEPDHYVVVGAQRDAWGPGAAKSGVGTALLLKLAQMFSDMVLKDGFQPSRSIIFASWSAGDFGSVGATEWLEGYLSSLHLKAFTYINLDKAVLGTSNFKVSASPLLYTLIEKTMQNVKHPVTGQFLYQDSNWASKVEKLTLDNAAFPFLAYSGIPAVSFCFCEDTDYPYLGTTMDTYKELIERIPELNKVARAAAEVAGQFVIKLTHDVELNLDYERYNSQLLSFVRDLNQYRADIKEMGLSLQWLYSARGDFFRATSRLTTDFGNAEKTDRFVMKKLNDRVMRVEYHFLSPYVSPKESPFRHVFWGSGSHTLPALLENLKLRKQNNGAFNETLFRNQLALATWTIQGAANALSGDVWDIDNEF
# Sequence of DDB1 (human) (Q16531 2-1140 limits assumed): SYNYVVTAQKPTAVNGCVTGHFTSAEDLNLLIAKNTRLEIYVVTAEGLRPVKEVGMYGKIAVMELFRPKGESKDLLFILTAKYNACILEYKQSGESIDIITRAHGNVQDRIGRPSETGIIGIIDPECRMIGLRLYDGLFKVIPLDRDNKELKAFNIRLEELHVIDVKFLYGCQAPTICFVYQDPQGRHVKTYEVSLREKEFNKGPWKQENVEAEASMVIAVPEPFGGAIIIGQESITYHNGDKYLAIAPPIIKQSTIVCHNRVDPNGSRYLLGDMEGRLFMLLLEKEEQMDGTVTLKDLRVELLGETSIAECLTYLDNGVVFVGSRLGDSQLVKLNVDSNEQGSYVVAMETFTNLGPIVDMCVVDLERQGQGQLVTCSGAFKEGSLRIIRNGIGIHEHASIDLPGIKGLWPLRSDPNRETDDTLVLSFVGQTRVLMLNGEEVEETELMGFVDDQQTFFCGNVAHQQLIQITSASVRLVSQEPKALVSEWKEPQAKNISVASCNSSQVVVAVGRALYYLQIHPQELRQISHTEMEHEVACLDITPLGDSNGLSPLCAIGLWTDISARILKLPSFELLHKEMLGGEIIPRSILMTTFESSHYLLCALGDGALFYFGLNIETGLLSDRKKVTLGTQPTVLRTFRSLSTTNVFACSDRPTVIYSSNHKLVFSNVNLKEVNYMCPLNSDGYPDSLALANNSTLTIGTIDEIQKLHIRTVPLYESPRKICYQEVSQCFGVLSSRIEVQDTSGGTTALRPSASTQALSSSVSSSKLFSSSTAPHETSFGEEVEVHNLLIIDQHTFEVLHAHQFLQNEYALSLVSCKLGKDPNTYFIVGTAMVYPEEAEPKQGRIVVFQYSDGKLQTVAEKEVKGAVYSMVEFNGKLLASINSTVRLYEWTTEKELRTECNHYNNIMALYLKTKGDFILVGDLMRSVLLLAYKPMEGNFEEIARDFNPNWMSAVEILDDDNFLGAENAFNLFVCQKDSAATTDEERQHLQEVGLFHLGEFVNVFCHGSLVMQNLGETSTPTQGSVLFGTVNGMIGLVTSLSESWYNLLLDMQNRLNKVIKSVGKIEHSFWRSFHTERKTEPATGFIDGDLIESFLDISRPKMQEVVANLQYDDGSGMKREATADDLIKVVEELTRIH
# Sequence of COPA (human) (P53621 whole entry): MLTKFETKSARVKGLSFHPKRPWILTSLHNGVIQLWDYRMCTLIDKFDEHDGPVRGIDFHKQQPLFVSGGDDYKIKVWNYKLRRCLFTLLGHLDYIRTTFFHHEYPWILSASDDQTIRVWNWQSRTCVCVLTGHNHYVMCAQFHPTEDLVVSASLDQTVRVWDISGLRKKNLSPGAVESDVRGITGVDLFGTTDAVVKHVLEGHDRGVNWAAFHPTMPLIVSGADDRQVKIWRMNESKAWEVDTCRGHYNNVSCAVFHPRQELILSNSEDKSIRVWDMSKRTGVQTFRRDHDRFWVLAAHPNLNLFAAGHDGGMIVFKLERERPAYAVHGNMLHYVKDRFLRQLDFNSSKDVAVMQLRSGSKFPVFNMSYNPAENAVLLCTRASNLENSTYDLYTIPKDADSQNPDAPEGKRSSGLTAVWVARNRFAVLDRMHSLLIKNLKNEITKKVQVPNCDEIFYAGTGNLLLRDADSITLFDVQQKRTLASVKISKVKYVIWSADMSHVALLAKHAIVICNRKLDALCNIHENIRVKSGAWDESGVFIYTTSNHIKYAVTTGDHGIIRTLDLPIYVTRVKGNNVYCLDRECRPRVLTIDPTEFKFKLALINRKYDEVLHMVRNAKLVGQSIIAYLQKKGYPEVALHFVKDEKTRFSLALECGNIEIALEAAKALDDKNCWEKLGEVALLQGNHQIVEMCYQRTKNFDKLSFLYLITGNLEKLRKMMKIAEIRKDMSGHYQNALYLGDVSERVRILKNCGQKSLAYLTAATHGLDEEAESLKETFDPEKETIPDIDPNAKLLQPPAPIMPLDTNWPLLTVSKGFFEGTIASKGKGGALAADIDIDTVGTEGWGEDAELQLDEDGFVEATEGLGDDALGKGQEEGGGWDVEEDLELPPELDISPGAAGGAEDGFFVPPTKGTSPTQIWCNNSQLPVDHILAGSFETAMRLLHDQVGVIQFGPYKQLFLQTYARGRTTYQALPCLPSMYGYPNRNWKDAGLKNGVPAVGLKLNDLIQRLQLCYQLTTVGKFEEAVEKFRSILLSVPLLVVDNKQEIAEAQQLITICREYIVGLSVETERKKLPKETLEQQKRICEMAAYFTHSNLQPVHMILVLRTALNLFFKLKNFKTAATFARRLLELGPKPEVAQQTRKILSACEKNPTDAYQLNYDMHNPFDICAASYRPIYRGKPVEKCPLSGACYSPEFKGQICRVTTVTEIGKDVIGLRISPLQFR
# Sequence of DDOST (human) (P39656 43-456 limits assumed): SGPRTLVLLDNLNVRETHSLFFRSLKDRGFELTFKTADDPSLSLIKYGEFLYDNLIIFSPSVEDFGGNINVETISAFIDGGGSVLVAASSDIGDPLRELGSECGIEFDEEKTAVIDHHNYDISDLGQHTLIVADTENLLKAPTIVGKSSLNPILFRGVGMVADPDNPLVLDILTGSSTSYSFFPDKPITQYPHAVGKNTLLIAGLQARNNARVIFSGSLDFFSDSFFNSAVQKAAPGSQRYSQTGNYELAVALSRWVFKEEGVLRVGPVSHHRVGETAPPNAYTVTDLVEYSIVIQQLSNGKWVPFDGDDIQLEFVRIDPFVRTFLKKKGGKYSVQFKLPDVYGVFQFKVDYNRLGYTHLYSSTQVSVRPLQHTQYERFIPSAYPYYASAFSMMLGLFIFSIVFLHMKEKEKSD
substance,measurement,setting,value
Flag-MFF1 (from UniProt Q9GZY8 1-342),mean fold,[1],19.3 fold
same,mean fold,[2],18.5 fold
same,mean fold,[3],32.3 fold
same,mean fold,[4],17.1 fold
same,mean fold,[5],21.4 fold
same,mean fold,[6],25.2 fold
same,mean fold,[7],10.8 fold
same,mean fold,[8],12.1 fold
same,mean fold,[9],15.1 fold
same,mean fold,[10],25.3 fold
